{"source": "paper PMC2865256", "about": "(Journal of immunology (Baltimore, Md. : 1950), 2009)", "binders": {"B1": {"name": "mouse BTLA-Fc (Fc fusion, UniProt Q7TSA3 30-183, looked up)", "chain": "EKATKRNDEECPVQLTITRNSKQSARTGELFKIQCPVKYCVHRPNVTWCKHNGTICVPLEVSPQLYTSWEENQSVPVFVLHFKPIHLSDNGSYSCSTNFNSQVINSHSVTIHVRERTQNSSEHPLITVSDIPDATNASGPSTMEERPGRTWLLY"}}, "molecular_target": "T1, mouse HVEM on splenic T cells (mouse (endogenous in splenic T cells), UniProt Q80WM9 39-275)", "T1 sequence (looked up)": "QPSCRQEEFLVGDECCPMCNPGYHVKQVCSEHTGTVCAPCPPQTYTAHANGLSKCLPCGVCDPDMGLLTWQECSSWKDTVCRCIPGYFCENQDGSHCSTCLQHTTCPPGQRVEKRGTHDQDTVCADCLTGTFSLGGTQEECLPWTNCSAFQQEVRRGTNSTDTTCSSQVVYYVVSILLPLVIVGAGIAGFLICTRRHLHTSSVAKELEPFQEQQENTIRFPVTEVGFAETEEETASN", "assay": "flow cytometry on cells"}
{"binder": "B1", "values": [{"measurement": "MFI ratio of Btla-/- T cells to WT T cells", "value": 4.4}]}
